# Laboratory results reported in publication PMC5373594.
# Tested on: T1, His6-WblI (Streptomyces lividans TK24), ORF:202723bd
# T1 sequence: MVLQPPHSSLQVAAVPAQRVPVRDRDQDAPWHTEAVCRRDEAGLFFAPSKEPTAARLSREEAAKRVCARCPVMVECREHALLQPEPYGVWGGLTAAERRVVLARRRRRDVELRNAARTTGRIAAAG
# Experiment: EMSA
# Conditions: 10 mM Tris-HCl pH 7.5, 50 mM KCl, 1 mM DTT, 20 µl, room temperature 15 min, 50 pmol probe, 5% native PAGE in 45 mM Tris-HCl pH 8.3, 45 mM boric acid
sequence,measurement,value
AGCCAGTGGCGATAAGGTTCCGTCCGGTCCGGGGCCGTCCTCGGGCAGTAACGCCGACGGCGGGGCCGTGGCCCTGTCCGGCTCGTCGGCTTCAACGGAACTCATGGCGTCCCCCGGGTCCTCGACTATTGGTCCACGAACGACCACCGTTCTACAATGGAACGGTGGTCGCGTCAAGAAACGGTGGCCCGTTCATGCCATACGATGAGGAGCACGTGTCGCTTATCGCCACTGGCT (double strand) [actII-1/actII-2 intergenic region],binding,binds
